We go through 39 sequences from the supplement of paper PMC7877785.

± gives the uncertainty stated by the source.

The data set in a line: self-splicing fitness, log relative to wild type (ln ratio); higher = more splicing; Tetrahymena group I intron in knt gene, E. coli kanamycin selection, DiMSum; sequences stand for … in CUCUCU…GGAGGGAAAAGUUAUCAGGCAUGCACCUGGUAGCUAGUCUUUAAACCAAUAGAUUGCAUCGGUUUAAAAGGCAAGACCGUCAAAUUGCGGGAAAGGGGUCAACAGCCGUUCAGUACCAAGUCUCAGGGGAAACUUUGAGAUGGCCUUGCAAAGGGUAUGGUAAUAAGCUGACGGACAUGGUCCUAACCACGCAGCCAAGUCCUAAGUCAACAGAUCUUCUGUUGAUAUGGAUGCAGUUCACAGACUAAAUGUCGGUCGGGGAAGAUGUAUUCUUCUCAUAAGAUAUAGUCGGACCUCUCCUUAAUGGGAGCUAGCGGAUGAAGUGAUGCAACACUGGAGCCGCUGGGAACUAAUUUGUAUGCGAAAGUAUAUUGAUUAGUUUUGGAGUACUCGUGGUCG
Put shortly: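 Six replicate transformations of E. coli BL21(DE3) with a pET-22b(+) library were grown overnight at 37°C or 30°C. The library randomised all eight P1ex-region intron nucleotides, the intron lying in the knt kanamycin-resistance gene, and plates were LB agar with or without 25 μg/mL kanamycin plus 100 μg/mL carbenicillin, 50 μM IPTG and 0.2% rhamnose. Pooled colonies were amplicon-sequenced on an Illumina HiSeq 2500, and fitness is the DiMSum error-weighted combination of wild-type-normalised replicate fold changes, kanamycin versus none.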

As for GUUAAGCAAUAUUACGUACC, where the note is “30 °C”, the “self-splicing fitness (ln)” value was -0.386 ± 0.29.

Regarding CACCAGCAAUAUUACGAAGC, the “self-splicing fitness (ln)” value is -3.27 ± 0.15 (30 °C) and -2 ± 0.14 (37 °C).

As for AGAUAGCAAUAUUACGAUGA, the “self-splicing fitness (ln)” value is -1.5 ± 0.13 (30 °C) and -0.349 ± 0.097 (37 °C).

Consider AAUCAGCAAUAUUACGGCGA, for which the “self-splicing fitness (ln)” value (30 °C) was -0.0143 ± 0.073 and the “self-splicing fitness (ln)” value (37 °C) worked out at 0.557 ± 0.093.

Take CGUUAGCAAUAUUACGAAGA: the “self-splicing fitness (ln)” value (30 °C) was -2.24 ± 0.29.

With CUCGAGCAAUAUUACGAUGC, the “self-splicing fitness (ln)” value (30 °C) was -4.39 ± 0.46 and the “self-splicing fitness (ln)” value (37 °C) was -3 ± 0.47.

For AAUAAGCAAUAUUACGGAAC, the “self-splicing fitness (ln)” value was -4.53 ± 0.34 (30 °C) and -2.16 ± 0.23 (37 °C).

ACACAGCAAUAUUACGAUCU: the “self-splicing fitness (ln)” value is, setting by setting: (30 °C) -0.658 ± 0.053; (37 °C) 0.14 ± 0.082.

Turning to CCUCAGCAAUAUUACGCAAU, the “self-splicing fitness (ln)” value was -3.87 ± 0.2 (30 °C) and -2.01 ± 0.18 (37 °C).

Consider UACGAGCAAUAUUACGGGCA, for which the “self-splicing fitness (ln)” value reads like this: (30 °C) -1.77 ± 0.089; (37 °C) -0.925 ± 0.087.

Turning to AACGAGCAAUAUUACGUCCG, the “self-splicing fitness (ln)” value (37 °C) was -2.07 ± 0.29.

For CGGUAGCAAUAUUACGGUGG, the “self-splicing fitness (ln)” value was -0.519 ± 0.092 (30 °C) and -0.124 ± 0.12 (37 °C).

Regarding GGUAAGCAAUAUUACGACCC, the “self-splicing fitness (ln)” value is -1.6 ± 0.26 (30 °C) and -1.75 ± 0.43 (37 °C).

As for AACCAGCAAUAUUACGAUAU, the “self-splicing fitness (ln)” value (30 °C) is -0.891 ± 0.057 and the “self-splicing fitness (ln)” value (37 °C) is -0.0726 ± 0.089.

AUCGAGCAAUAUUACGUUUA: the “self-splicing fitness (ln)” value was -2.49 ± 0.29 (30 °C) and -2.26 ± 0.37 (37 °C).

With CAUAAGCAAUAUUACGCGCG, the “self-splicing fitness (ln)” value (30 °C) was -0.536 ± 0.14 and the “self-splicing fitness (ln)” value (37 °C) stood at 0.0409 ± 0.15.

For CAUAAGCAAUAUUACGUGAA, the “self-splicing fitness (ln)” value reads like this: (30 °C) -3.45 ± 0.2; (37 °C) -2.14 ± 0.18.

Take AACCAGCAAUAUUACGUAAG: the “self-splicing fitness (ln)” value (30 °C) was -1.28 ± 0.059 and the “self-splicing fitness (ln)” value (37 °C) was -0.259 ± 0.072.

Consider GUGGAGCAAUAUUACGCGGG, for which the “self-splicing fitness (ln)” value runs as follows: (30 °C) -2.34 ± 0.36; (37 °C) -2.06 ± 0.47.

As to UGGCAGCAAUAUUACGUCGU, the “self-splicing fitness (ln)” value is, setting by setting: (30 °C) -2.65 ± 0.099; (37 °C) -1.22 ± 0.096.

As for UUUCAGCAAUAUUACGCCUU, the “self-splicing fitness (ln)” value is, setting by setting: (30 °C) -1.58 ± 0.2; (37 °C) -0.883 ± 0.2.

Regarding GCGCAGCAAUAUUACGGCUA, the “self-splicing fitness (ln)” value reads like this: (30 °C) -0.44 ± 0.092; (37 °C) 0.0852 ± 0.097.

Turning to UUGGAGCAAUAUUACGUAAG, the “self-splicing fitness (ln)” value (30 °C) is -2.23 ± 0.26 and the “self-splicing fitness (ln)” value (37 °C) is -0.995 ± 0.24.

In the case of ACGGAGCAAUAUUACGGUAG, under “37 °C”, the “self-splicing fitness (ln)” value is -2.33 ± 0.31.

For CCGAAGCAAUAUUACGAAGC, the “self-splicing fitness (ln)” value (37 °C) is -1.59 ± 0.24.

For the sequence AGUAAGCAAUAUUACGCUGA, the “self-splicing fitness (ln)” value (30 °C) is -1.98 ± 0.33 and the “self-splicing fitness (ln)” value (37 °C) was -2.29 ± 0.31.

For UAGCAGCAAUAUUACGACUG, the “self-splicing fitness (ln)” value was -0.817 ± 0.14 (30 °C) and -0.556 ± 0.18 (37 °C).

As for UAUAAGCAAUAUUACGGUAU, the “self-splicing fitness (ln)” value (30 °C) was -3.16 ± 0.16 and the “self-splicing fitness (ln)” value (37 °C) was -2.25 ± 0.17.

For CUCCAGCAAUAUUACGGUAC, the “self-splicing fitness (ln)” value is -2.28 ± 0.12 (30 °C) and -1.86 ± 0.16 (37 °C).

As to CACCAGCAAUAUUACGGUCU, the “self-splicing fitness (ln)” value (30 °C) was -1.44 ± 0.044 and the “self-splicing fitness (ln)” value (37 °C) is -1.04 ± 0.057.

On to ACUGAGCAAUAUUACGAGCA, for which the “self-splicing fitness (ln)” value is -2.63 ± 0.27 (30 °C) and -1.42 ± 0.19 (37 °C).

As for GAACAGCAAUAUUACGUGCA, the “self-splicing fitness (ln)” value (30 °C) was -1.09 ± 0.065 and the “self-splicing fitness (ln)” value (37 °C) was 0.0769 ± 0.089.

As for UAAUAGCAAUAUUACGGAAA, the “self-splicing fitness (ln)” value (37 °C) is -2.44 ± 0.26.

With AUGGAGCAAUAUUACGAAUG, the “self-splicing fitness (ln)” value by setting is: (30 °C) -3.6 ± 0.34; (37 °C) -2.35 ± 0.18.

As for ACUCAGCAAUAUUACGGCAU, the “self-splicing fitness (ln)” value is -0.665 ± 0.063 (30 °C) and -0.293 ± 0.067 (37 °C).

Turning to UUGCAGCAAUAUUACGACUG, the “self-splicing fitness (ln)” value reads like this: (30 °C) -2.52 ± 0.19; (37 °C) -1.72 ± 0.2.

As to UGCAAGCAAUAUUACGUGGA, the “self-splicing fitness (ln)” value is -2.88 ± 0.17 (30 °C) and -1.36 ± 0.11 (37 °C).

With CUUAAGCAAUAUUACGGUGC, the “self-splicing fitness (ln)” value (30 °C) is -3.83 ± 0.17 and the “self-splicing fitness (ln)” value (37 °C) was -2.25 ± 0.2.

Regarding GGCUAGCAAUAUUACGGAUA, the “self-splicing fitness (ln)” value by setting is: (30 °C) -0.897 ± 0.13; (37 °C) -0.492 ± 0.15.
